The target in the test is Prp8^885–2413 tagged with a calmodulin-binding peptide (CBP) at the N terminus (yeast, UniProt P33334 885-2413). The test is described as follows: pull-down; calmodulin pull-down; CBP-tagged Prp8^885-2413 or its complexes as bait (0.5 μM), prey 1.0 μM; overnight at 4°C in 20 mM HEPES K+ pH 7.8, 300 mM KCl, 1 mM Mg(OAc)2, 2 mM CaCl2, 10 mM β-mercaptoethanol; calmodulin resin 3 hr, eluted with EGTA; SDS-PAGE. Particulars: both partners purified.
Chain of Prp8^885–2413 tagged with a calmodulin-binding peptide (CBP) at the N terminus (P33334 885-2413): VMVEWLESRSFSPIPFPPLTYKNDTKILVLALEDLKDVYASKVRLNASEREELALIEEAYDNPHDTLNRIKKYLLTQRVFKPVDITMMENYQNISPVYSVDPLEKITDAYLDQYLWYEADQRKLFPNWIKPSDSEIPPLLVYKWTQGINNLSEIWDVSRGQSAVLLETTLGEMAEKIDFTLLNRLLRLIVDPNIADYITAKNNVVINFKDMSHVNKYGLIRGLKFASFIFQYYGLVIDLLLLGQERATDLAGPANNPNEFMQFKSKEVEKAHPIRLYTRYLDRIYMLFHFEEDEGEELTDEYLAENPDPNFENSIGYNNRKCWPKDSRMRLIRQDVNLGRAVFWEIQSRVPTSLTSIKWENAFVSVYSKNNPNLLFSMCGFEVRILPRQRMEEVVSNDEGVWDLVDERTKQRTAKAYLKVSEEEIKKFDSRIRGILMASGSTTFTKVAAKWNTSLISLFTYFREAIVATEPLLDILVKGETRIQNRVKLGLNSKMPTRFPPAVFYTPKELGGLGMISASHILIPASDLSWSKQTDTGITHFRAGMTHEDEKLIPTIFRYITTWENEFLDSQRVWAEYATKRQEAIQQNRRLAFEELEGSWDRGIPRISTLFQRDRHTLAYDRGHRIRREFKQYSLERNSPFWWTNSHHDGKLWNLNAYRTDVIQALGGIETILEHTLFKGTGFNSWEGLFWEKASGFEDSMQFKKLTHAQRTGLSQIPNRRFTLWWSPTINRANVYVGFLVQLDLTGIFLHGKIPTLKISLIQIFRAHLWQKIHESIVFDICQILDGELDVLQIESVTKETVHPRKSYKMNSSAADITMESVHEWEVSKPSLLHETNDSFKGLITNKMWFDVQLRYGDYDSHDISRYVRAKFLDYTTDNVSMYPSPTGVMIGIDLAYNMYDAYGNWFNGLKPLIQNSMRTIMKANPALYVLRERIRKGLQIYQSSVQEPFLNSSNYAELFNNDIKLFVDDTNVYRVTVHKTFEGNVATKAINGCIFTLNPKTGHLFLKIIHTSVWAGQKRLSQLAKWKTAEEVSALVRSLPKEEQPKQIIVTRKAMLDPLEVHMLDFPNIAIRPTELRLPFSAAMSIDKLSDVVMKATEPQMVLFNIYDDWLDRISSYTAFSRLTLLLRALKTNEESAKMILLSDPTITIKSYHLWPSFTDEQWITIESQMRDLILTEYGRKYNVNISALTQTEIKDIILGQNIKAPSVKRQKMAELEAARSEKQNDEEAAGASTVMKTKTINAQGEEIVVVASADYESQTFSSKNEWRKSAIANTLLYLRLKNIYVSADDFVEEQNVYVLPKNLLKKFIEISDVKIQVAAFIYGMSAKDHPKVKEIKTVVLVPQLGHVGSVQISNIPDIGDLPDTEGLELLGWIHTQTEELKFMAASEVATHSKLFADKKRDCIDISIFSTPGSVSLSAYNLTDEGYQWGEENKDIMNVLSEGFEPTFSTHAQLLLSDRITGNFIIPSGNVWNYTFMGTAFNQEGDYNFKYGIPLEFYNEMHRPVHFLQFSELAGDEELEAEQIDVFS

B1: Aar2ΔC (missing 23 C-terminal residues) (domain or fragment, yeast, UniProt P32357 1-332, looked up)
chain: MNTVPFTSAPIEVTIGIDQYSFNVKENQPFHGIKDIPIGHVHVIHFQHADNSSMRYGYWFDCRMGNFYIQYDPKDGLYKMMEERDGAKFENIVHNFKERQMMVSYPKIDEDDTWYNLTEFVQMDKIRKIVRKDENQFSYVDSSMTTVQENELLKSSLQKAGSKMEAKNEDDPAHSLNYTVINFKSREAIRPGHEMEDFLDKSYYLNTVMLQGIFKNSSNYFGELQFAFLNAMFFGNYGSSLQWHAMIELICSSATVPKHMLDKLDEILYYQIKTLPEQYSDILLNERVWNICLYSSFQKNSLHNTEKIMENKYPELLGKDNEDDALIYGISD
notes: Aar2, yeast, missing 23 C-terminal residues (so in the source)
Take B1: the binding result was “binds”.

B2: Aar2 (natural protein, yeast, UniProt P32357 1-355, looked up)
chain: MNTVPFTSAPIEVTIGIDQYSFNVKENQPFHGIKDIPIGHVHVIHFQHADNSSMRYGYWFDCRMGNFYIQYDPKDGLYKMMEERDGAKFENIVHNFKERQMMVSYPKIDEDDTWYNLTEFVQMDKIRKIVRKDENQFSYVDSSMTTVQENELLKSSLQKAGSKMEAKNEDDPAHSLNYTVINFKSREAIRPGHEMEDFLDKSYYLNTVMLQGIFKNSSNYFGELQFAFLNAMFFGNYGSSLQWHAMIELICSSATVPKHMLDKLDEILYYQIKTLPEQYSDILLNERVWNICLYSSFQKNSLHNTEKIMENKYPELLGKDNEDDALIYGISDEERDDEDDEHNPTIVGGLYYQRP
notes: Aar2, U5 snRNP assembly factor, yeast; also called U5 snRNP assembly factor Aar2
Take B2: the binding result is “binds”.

For the origin of these results see PMC3677097, “Structural Basis of Brr2-Prp8 Interactions and Implications for U5 snRNP Biogenesis and the Spliceosome Active Site” (Structure(London, England:1993), 2013).
